Like-named read-outs stand apart in the source and are kept apart here.
What was measured:
[1] = biological target: Human CTLA4 antibody, which included human κ light chain subgroup 3 (Vκ3) (manufactured by R&D Systems, Inc.); test: ELISA, antibody immobilised (10 ug/mL), binder at 50 ug/mL, anti-6-His detection, blank subtracted
[2] = biological target: Herceptin, which included human κ light chain subgroup 1 (Vκ1) (manufactured by Chugai Pharmaceutical Co., Ltd.); test: as above
[3] = biological target: Herceptin, which included human κ light chain subgroup 1 (Vκ1) (manufactured by Chugai Pharmaceutical Co., Ltd.); test: as above; remark: listed apart in the source
[4] = biological target: Human PDGFR alpha antibody, which included human κ light chain subgroup 3 (Vκ3) (manufactured by R&D Systems, Inc.); test: as above
[5] = biological target: Human CTLA4 antibody, which included human κ light chain subgroup 3 (Vκ3) (manufactured by R&D Systems, Inc.); test: as above; remark: listed apart in the source
[6] = biological target: Human PCSK9 antibody, which included human κ light chain subgroup 4 (Vκ4) (manufactured by R&D Systems, Inc.); test: as above
[7] = biological target: Humira, which included human κ light chain subgroup 1 (Vκ1) (manufactured by Eisai Co., Ltd.); test: ratio of ELISA A450 on Humira (Vκ1) to A450 on Human PDGFR alpha antibody (Vκ3)
[8] = biological target: Humira, which included human κ light chain subgroup 1 (Vκ1) (manufactured by Eisai Co., Ltd.); test: ratio of ELISA A450 on Humira (Vκ1) to A450 on Human PCSK9 antibody (Vκ4)
[9] = biological target: Human PDGFR alpha antibody, which included human κ light chain subgroup 3 (Vκ3) (manufactured by R&D Systems, Inc.); test: ELISA, antibody immobilised, binder at 50 ug/mL, anti-6-His detection (repeats Table 17)
[10] = biological target: Humira, which included human κ light chain subgroup 1 (Vκ1) (manufactured by Eisai Co., Ltd.); test: as above
[11] = biological target: Human PCSK9 antibody, which included human κ light chain subgroup 4 (Vκ4) (manufactured by R&D Systems, Inc.); test: as above
[12] = biological target: Humira, which included human κ light chain subgroup 1 (Vκ1) (manufactured by Eisai Co., Ltd.); test: ratio of ELISA A450 on Humira (Vκ1) to A450 on Human PDGFR alpha antibody (Vκ3) (repeats Table 17)
[13] = biological target: Humira, which included human κ light chain subgroup 1 (Vκ1) (manufactured by Eisai Co., Ltd.); test: ELISA, antibody immobilised (10 ug/mL), binder at 50 ug/mL, anti-6-His detection, blank subtracted
[14] = biological target: Humira, which included human κ light chain subgroup 1 (Vκ1) (manufactured by Eisai Co., Ltd.); test: ratio of ELISA A450 on Humira (Vκ1) to A450 on Human PCSK9 antibody (Vκ4) (repeats Table 17)

| absorbance at 450 nm (absorbance at 450 nm) [1] | absorbance at 450 nm (absorbance at 450 nm) [2] | absorbance at 450 nm (absorbance at 450 nm) [3] | absorbance at 450 nm (absorbance at 450 nm) [4] | absorbance at 450 nm (absorbance at 450 nm) [5] | absorbance at 450 nm (absorbance at 450 nm) [6] | Absorbance ratio (Vκ1/Vκ3) [7] | Absorbance ratio (Vκ1/Vκ4) [8] | absorbance at 450 nm (absorbance at 450 nm) [9] | absorbance at 450 nm (absorbance at 450 nm) [10] | absorbance at 450 nm (absorbance at 450 nm) [11] | Absorbance ratio (Vκ1/Vκ3) [12] | absorbance at 450 nm (absorbance at 450 nm) [13] | Absorbance ratio (Vκ1/Vκ4) [14] | Substance |
| --- | --- | --- | --- | --- | --- | --- | --- | --- | --- | --- | --- | --- | --- | --- |
| 0.98 | – | – | – | – | – | – | – | – | – | – | – | – | – | FpL_C3KR_K38E (K(R)38E introduced into FpL_C3KR) (designed binder) |
| 0.07 | 0.86 | 0.92 | 0.21 | 0.32 | 0.77 | – | – | – | – | – | – | – | – | FpL_C3KR (all lysine residues of FpL_C3 substituted with arginine) (designed binder) |
| – | – | – | 0.71 | – | 0.91 | 1.2 | 0.9 | 0.71 | 0.82 | 0.91 | 1.2 | 0.82 | 0.9 | C3 immunoglobulin-binding domain of Protein L derived from Finegoldia magna (FpL_C3), wild-type |
